Experimental data as given in the DeepSol protein solubility set.

Test: soluble on expression in E. coli; label from the status in PepcDB or PDB records

Sequence | soluble on expression in E. coli
MSQLVECVPNFSEGNNQEVIDAISQAISQTPGCVLLDVDAGPSTNRTVYTFVGQPECVVEGALSAARTASQLIDMRKHKGEHPRMGALDVCPFIPVRGVSMDECVLCAKAFGQRLAEELNVPVYLYGEAAQMPSRQTLPAIRAGEYEALPEKLKQAEWVPDFGPSSFVPSWGATVTGARKFLIAFNINLLSTKEQAHRIALNLREQGRGKDQPGRLKKVQGIGWYLEEKNLAQVSTNLLDFEVTALHTVYEEARREAQELNLPVVGSQLVGLVPLKALLDAAAFYCDKEKLFVLEEEHRIRLVVNRLGLDSLAPFDPKERIIEYLVPDSGPEQSLLDASLRAFVREVGARSAAPGGGSVAAAVAALGAALASMVGQMTYGRRQFDHLDSTMRRLIPPFHAASAQLTSLVDADARAFAACLGAIKLPKNTPEERDRRTCALQEGLRQAVAVPLKLAETVSQLWPALQELAQCGNLSCLSDLQVAAKALETGVFGAYFNVLINLKDMTDDVFKEKTRHRISSLLQEAKTQAALVLGSLEARKE | soluble
MGSDKIHHHHHHMFTLYERKNRQKSNVNIFVMNYVTNLTKENLAGERIGVFFGTFAPLHVGHQAEIYKAAALNDGVLVVTSGYTGDRGEQIGLPLRKRFRYLRQAFADEWQIKVDYLNEDGIPKMPDGWDVWLDKLLGIIKRNIVNKNAKITFYTGEPDYKKEIEKRLGDNPQFRVSLMDRTILNISATKIRKEPLKYWDYINRVFRRHFVQKVVVMGSSNSGKSTLIRRLARSANSPFSDDFAAIYQEESNVADSEMDIKDYSNIIQGQYQANSLEINSPANNGLAIFNGDAISLQAYSNLLLNQDERLQLKHLYNTIISAEEFDLILVIPPFSDPRRKVIRFTGAAIDPVAYYQELIRLIDFYGFSDKMVVLNAKNQTDDPAGYYARYLQALDAIEKYTSFDIEHHR | not soluble
MSDVMADRTPPHNIEAEQAVLGAILIDQDALTSASELLVPDSFYRTKHQKIFEVMLGLSDKGEPIDLVMMTSAMADQGLLEEVGGVSYLAELAEVVPTAANVEYYARIIAEKALLRRLIRTATHIVSDGYEREDDVDGLLNEAEKKILEVSHQTNAKAFQNIKDVLVDAYDKIELLHNQKGEVTGIPTGFTELDKMTAGFQRNDLIIVAARPSVGKTAFSLNIAQNVATKTDENVAIFSLEMGADQLVMRMLCAEGNIDAQRLRTGSLTSDDWAKLTMAMGSLSNAGIYIDDTPGIKVNEIRAKCRRLKQEQGLGMILIDYLQLIQGSGKSGENRQQEVSEISRTLKGIARELQVPVIALSQLSRGVESRQDKRPMMSDIRESGSIEQDADIVAFLYREDYYDRETENKNTIEIIIAKQRNGPVGSVELAFVKEFNKFVNLERRFEDGHAPPA | not soluble
MLLMEKILYQTDEFKLKPSGWYKTIPPKKDGGTEFEIMLSGPIAFTDRFIDPATRKEKVFLSDLNNIELVEKASILTALQLPSLIEYGFTINEKHIRDLGFVLQQMRSTTPLSTIYSGVGMLHTLLGPLISLDQPYFSNEITNSTSIICDNKYDLIPKGNLSEWLQMYKEEVHGNLSLELDVLFGVSSLVTAFLKYHNNVEFSGTIFSFTGQSSTGKSTAAMLAASVAGNPTKGTENLFRSWNATRNALEGYLSGNYGVPIVLDELSAATFHDTTGLLYSFAEGQGRQRANINGDVKTPKNLEHHHHHH | not soluble
ESSDHLRLVAWYIPVKNSKRTVVLAHGFAGNKGLMGAWAGMYHELGYNVLVPDSRASGASQGKAVGYGWLERRDDLQWAKTVVHKTATTQIVMSGISMGAAGMTMASGERQLPQIKAYVVDSPFTSADAIISYQAGQLYHLPAFPLVNVTSLITKLRAGYSFKEADAVAQIRKNHLPIMIISGTRDDFVPTSMGKTLYRNAHQPKSLWLVKGAGHTTAITQNYQRYKRHVTAFLEQYVQ | not soluble
MGSDKIHHHHHHMNKPERPSHLAAARREPTHYLTADERAAKGRALRDTVPRGSQSGWQAPEDRRDPIELLNESNAGRILDLVPIRYGRMAASPFAFYRGSASLMAADLATTPSSGIRVQACGDAHLMNFGGFATPERNIIFDINDLDETLPAPFEWDLKRLAASLAIAAEHLALPKSDAARVVTDVVREYRERMFNYGWMRALDVWYDRIDLQKYEDRSGDPEIVAAARKRLAQRIEGERRKTVPDYLYPKLVSEEGAKPRIKDEPPLIFHPTEELAPGMGSDYAQAIASYRSSLAEHVRVLFDRFHFFDMAIKVVGVGSVGTMCGVGLFLAADNDPLFLQVKEARASVLEPYAGKSLHANHGERVIAGQRLMQAASDVFLGWTRGENGRDFYLRQLRDMKLSAVIEDWDTGMLRQYGRMCAHALARAHARSGDAAMMAGYMGSGQAFDDAICEFATEYCSQNRSDFRTFVAAIREGRIEARLEAN | not soluble
MGSDKIHHHHHHMINLKELKILHTSDWHLGVTSWTSSRPVDRREELKKALDKVVEEAEKREVDLILLTGDLLHSRNNPSVVALHDLLDYLKRMMRTAPVVVLPGNHDWKGLKLFGNFVTSISSDITFVMSFEPVDVEAKRGQKVRILPFPYPDESEALRKNEGDFRFFLESRLNKLYEEALKKEDFAIFMGHFTVEGLAGYAGIEQGREIIINRALIPSVVDYAALGHIHSFREIQKQPLTIYPGSLIRIDFGEEADEKGAVFVELKRGEPPRYERIDASPLPLKTLYYKKIDTSALKSIRDFCRNFPGYVRVVYEEDSGILPDLMGEIDNLVKIERKSRREIEEVLRESPEEFKEELDKLDYFELFKEYLKKREENHEKLLKILDELLDEVKKSEA | not soluble
MALQSSVRAFKKPPRPLVDEVRFLRSWIEKPLHMGAVMPSGKLLARTMARYVDIQSDGPVIELGPGTGAITNALVEHGVDQKRLVLLEFDPGFCALLRERFPLAKVVQGDAYRLRDSLWDALEIPATAVVSGLPLVTKPMLTRMKLIRDAFTLLEPGAPFVQFTYSVAPPIPKSLPGVSTEGSERIWMNVPPARVWVYRKRLEHHHHHH | not soluble
MSSQISEIEQEQLIEKLEIFKIHGRDKRGRKILRIIGKFFPARFLSLDVLKKYLEEKIFPRLGRKPFAVLYVHTGVQRSENFPGISALRAIYDAIPVNVRDNLQEVYFLHPGLQSRLFLATCGRFLFSGGLYGKLRYISRVDYLWEHVRRNEIEMPEFVYDHDDDLEYRPMMDYGQESDHARVFAGAAVDSSVSSFSMRCIS | soluble
MNIDELIAIDVHTHAEEPCCGPRDDGYDEFQAGMAKYFKNPAGHKGMLPTVQETAAYYRERKIGCVIFPVDAERETGFRRYENEEVAKIAAENSDIMIPFASIDPAKGKAGAREARRLVREFGVKGFKFHPTMQGFYPNDRMAYPLYEAIAEEGAITLFHTGQTGVGAGLRGGMAMRLKFSNPIHLDDVAVDFPDMPIILAHPSFPWQEEALSVATHKPNVYIDMSGWSPKYFPPILVQYANSLLKHKMLFGSDWPAMTPERWLNDFANISIKDEVRPLILKENARRLLKLLEHHHHHH | not soluble
MRILNQDNNIAVRNVLLMLTMEEAAELKDDLERLLSKKALNDHSHINDLEYEHELTISLYDENNIEEFDERIKKLIIQDE | not soluble
MSLNSLKHPKVRDTRDMWDIREELTSEQKKQEKLLAEINKYDKFVNSYSQTKEMTKETALNNTLQSLKKTAGMTDITGSGIVITISPLFSESLTGEPIENPPPDLLKKLINELNSYGAEHISINERRVVNHTVIRDINGTTKIDGYALDDYPLTVKVLAKDPDMLHSRVKGSGLEDLFASENLALKAGKSESKLTLKAYDRPLDVQQLKLLKDEGHHHHHH | soluble
MGSDKIHHHHHHSNKKTVDPNPVVRDNIIHLSTAIKNVREEMMLSELVDSVSYIPLETNPNCMLGNYQRLTFSPQYIFYSNYCFDWNGQFLFRIGSQGQGACEDIYVHVADIVYLNNHFYGNASKIIEYDDRGKCTGKELSWFTQKTMDTAPVGHLVNQVCFAPAGENLMFYNFPDTVYFINTDYEFVAKRSMMPWGRKGGAPSMSGGDPRFKYTSYYKDTTLFYNFYTDTVFTVTPTSLMPRWVVELDEELRFPTRYLYEDGLLSEAFKCWESGNLENAKMIKLLDHKYMVSGVFETERFVFLSVYECMPFRELRKLPETPPLTAIYNKRTGETFAVKQVVDDLGGMKAFFPSWGAYNEKLLATIWPYKLKEFIEEEQSAGRTVAPQILNLMQRVREDDNPVLIIAHLKK | not soluble
MGSDKIHHHHHHMNKTITIDPVTRIEGHARVFIDLDDGGALKAAGLVVNELRGFEKILTGMDADRMPLVTARICGVCPTAHHLAATNALDNAAGVEPPTAAKLLRELMYMGHLIHSHCLSLFVLQGPDLVLGLDADPAIRNVVGVVQAVPDIARKALQCRSIGQKINELVGGRGTHPVTSVAGGIAFVLDADRERQLNAWIQEAHGLVLELAPVVKQLLMKMLDANPAMLEQWVIPAWSVGTVKGDGTIALVNGEIRAIDESGARKAQFPTAGYDTHLSEAAVDFSYMKQVSFVEGETRHDYRVGPLARLNISDRYGTPLADREREEFIRTVGRPCHANALQPWARLIELLYCTERAQEIMASPEIHGETRVPVKFSGGRGVGHVEAPRGTLIHDYEIDENGIVRAANLIVATQQNYALINTMIAQAATSHVINRPDDQALLNAVEFGIRCYDPCLSCATHALGAMPLEIVVNRADRPHLIRRNC | not soluble
MAINLNTFAKVSADWYELKKSQPLAENTIKDIWRSLEKYVFPFIGTLPITQLTARHFISALEPIQASGKLETVKRVSQRINEVMDYAVNSGLIPANPAAKIRKAFQTPVKTHMLEHHHHHH | not soluble
MGHHHHHHGGHMSLPNFFTPEFGPLRGVRVITTGSIIAGPTAGTILADLGAEVIHVERPKVGDTLRVVPPYFEADGKRIGGEFVCVTRNKLSVALDIKSEEGRKIFYELLKHADIFIENLVWLEERYGITDKDMLEANPRLVIVHVSGFGRSEFGGEDEKCGRGSYDIISQAYSGWCKLAAPPGMEVHRLPLYIGDYVTALFGVIGALSAYVYAKETGRGQVVDVAQFEAIARVIEMYYTMYHNLGINREGEGLRVFNTQPYGLYRVKDGWIAIGAIGPGLYQRFIQALAKATGINPADYPYEECAASPEAVNSEKGRELDRIFNEYLMSHTKEEVEKLFNAFRVPCSRVSTPEDVVRDRHWIERGDIIEVLDETTGRLVKQVGIVPKFSETPGRIWRGPPKLGSDTKKVLKGLLNLSDEQIDELKAKGVVDFEGGS | soluble
MGSDKIHHHHHHMSQHETPLYTGLKKHASRQPVQFHIPGHKKGAGMDPEFRQFIGENALSIDLINIEPLDDLHAPKGIIKQAQDLAAEAFGADHTFFSVQGTSGAIMTMVMAVCGPGDKIIIPRNVHKSIMTAIVFSGAVPIFIHPEIDNELGISHGITLESAKRALTEHPDAKGLLVINPTYFGVAADLKSIVELAHSFDVPVLVDEAHGVHIHFHDELPLSAMQAGADIAATSVHKLGGSLTQSSILNMREGLVSKDRVQSILSMLTTTSTSYLLLASLDVARKRLATEGRQLAEETLKLANQTRDRLNQIEGIYCVGSEILGSKAAYSYDPTKLIISVKSLGLTGHDVEKWLRESFNIEVELSDLYNILCIFTPGDSQNDADRLVEALTEIAQQMSEQDVTHQQTEVLLPEIPLLAMTPRDAFYANTEVIPLKEASGRIIAEFVMVYPPGIPIFIPGEIITEENISYIFKNLDAGLPVQGPEDSTLHMIRVIKEQKAIQ | not soluble
MAQSFLLMGALIQHHLKGEKADLLTPEKLLEAANKQGTVPSRVRYQWMEDEETGRLKAVGYHTSMESGRDQVRVRLLKHDFPNNRYEFWEEGATGPTILWTPDNPGIELPTDTAHGEQPVIPSAIPGLEIPEMDDVSILATPMPDEKDFRDYILVFPENAFPPIYVYLSKKIDTPIWLEHHHHHH | soluble
MKTIYLYKAQIPEGKNKGDNAILITNQTVIDKLEKAAKEDGKSGTQVSTIASKSTTKENQENKIIGYTSTDNLREDNKNIFDIDDLNDEKYDRKIIVSATEEVLEQSNTLQSEEAVVLPAPAKYKASDSTKIAITQEPNLIGIHANEKENEETRKFVNW | soluble
